# Molecular target: αβ T cell receptor A6 (human)
# Assay: SPR
Substance,Kd,dH
Tel1p-HLA-A2 complex (S. cerevisiae Tel1p peptide … presented by wild-type HLA-A*0201) (from UniProt P61769 21-119) (peptide-MHC),41 µM,-3 kcal/mol
Tel1p-HLA-A2 (A150P) complex (from UniProt P61769 21-119) (peptide-MHC),5 µM,

# — article PMC3248800
